Source: patent US20260098095A1 (Hoffmann-La Roche, published 2026)
Changes are numbered by the printed parent chain.

B1: Molecule H (antibody, V domains shown)
VH: YVQLVESGGGLVKPGGSLRLSCAAPLPFTGLDMSWVRQAPGKGLEWVGSISPKGGSTYYNDNVLGRFTISRDNSKNTLYLQMNSLRAEDTAVYYCARDWGFFDLWGQGTLVTVSS
VL: AIQMTQSPSSLSASVGDRVTITCRASQSISNYLAWYQQKPGKAPKLLIYDANAHENDVPSRFSGSGSGTDFTLTISSLQPEDFATYYCQQYSSHPYTFGQGTKLEIK
notes: also called 007A09 IgG antibody
B2: Molecule K (antibody, V domains shown)
VH: AQLVESGGGLVQPGGSLRLSCAASAYFSFKAMSWVRQAPGKGLEWVGSISPSGGSTYYNDNVLGRFTISRDNSKNTLYLQMNSLRAEDTAVYYCAKDVGFFDEWGQGTLVTVSS
VL: B1 VL with A1D, N31S, N52S, A53I, H54R, E55D, N56I, D57G, H94Y
notes: also called 057D03 IgG antibody
B3: Molecule J (antibody, V domains shown)
VH: TQQLVESGGGLVQPGGSLRLSCAASGFSFSFDTMSWVRQAPGKGLEWVGSISPSGGSTYYNDNVLGRFTISRDNSKNTLYLQMNSLRAEDTAVYYCARDHGYFDMWGQGTLVTVSS
VL: B1 VL with A1D, N31S, N52S, A53W, H54L, N56L, D57G, H94Y
notes: also called 057B04 IgG antibody
B4: Molecule I (antibody, V domains shown)
VH: B1 VH with V2P, P25R, L26Y, G30R, L104N
VL: B1 VL with D50N, N52S, A53H, H54P, N56Y
notes: also called 007D10 IgG antibody
B5: Molecule L (antibody, V domains shown)
VH: not shown
VL: SSELTQDPAVSVALGQTVRITCQGDSLRSYYASWYQQKPGQAPVLVIYGKNNRPSGIPDRFSGSSSGNTASLTITGAQAEDEADYYCNSRQSSYYHHIVFGGGTKLTVL
notes: also called 032G09 IgG antibody
B6: Molecule M (antibody, V domains shown)
VH: not shown
VL: B5 VL with G67S, Q91M, Y94R, I98D
notes: also called 034F05 IgG antibody
B7: Molecule N (antibody, V domains shown)
VH: QVQLQQSGGEVMKPGASVKLSCKATGYTFTGYWIEWIKQRPGHGLEWIGEILPGSGGTNYNEKFKGKATFTAHTSSNTAYMQLSSLTTEDSAIYYCARDSNSFTYWGQGTLVTVSS
VL: QIVLTQSPAIMSASPGEKVTITCSVSSSVDYIHWFQQKPGTSPKFWIYSTSILASGVPARFSGSGSGTSYSLTISRMEAEDAATYYCQQRSSYPPTFGSGTKLEIK
B8: Molecule U (bispecific antibody, V domains shown)
VH 1: B7 VH
VL 1: B7 VL
VH 2: EVQLVESGGGLVQPGGSLRLSCAASGYSFTGYTMNWVRQAPGKGLEWVALINPYKGVSTYNQKFKDRFTISVDKSKNTAYLQMNSLRAEDTAVYYCARSGYYGDSDWYFDVWGQGTLVTVSS
VL 2: DIQMTQSPSSLSASVGDRVTITCRASQDIRNYLNWYQQKPGKAPKLLIYYTSRLESGVPSRFSGSGSGTDYTLTISSLQPEDFATYYCQQGNTLPWTFGQGTKVEIK

The binders below were run against T1, HLA-A2/MAGE-A4p230-239 complex (human) (assay: SPR Biacore T200, antibody captured by anti-human Fc, pMHC complex as analyte, 25 C, 1:1 Langmuir fit).
T1 construct: also called HLA-A2/MAGEp230-239
Description: The dissociation phase was monitored for 240 s and triggered by switching from the sample solution to HBS-EP+. The chip surface was regenerated after every cycle using an injection of 3M MgCl₂ at 10 μl/min for 30 sec. Bulk refractive index differences were corrected for by subtracting the response obtained on the reference flow cell which contains the anti-human Fc antibody, but without HLA-A2/MAGE-A4 antibody captured on it. The affinity constants were derived from the kinetic rate constants by fitting to a 1:1 Langmuir binding using the BIAeval software (GE Healthcare). The measurement was performed in triplicate with independent dilution series.

**Q.** With B1 as the binder, how does the Kd read?
**A.** The Kd was 17.3 nM.

**Q.** And the koff?
**A.** Its koff is 0.00426 s⁻¹.

**Q.** What about the kon of the same binder?
**A.** Its kon is 247000 M⁻¹ s⁻¹.

**Q.** For B2, which Kd is on record?
**A.** Its Kd is 15.7 nM.

**Q.** What about the koff of the same binder?
**A.** Its koff is 0.0408 s⁻¹.

**Q.** What about the kon of the same binder?
**A.** The kon was 2.6e+06 M⁻¹ s⁻¹.

**Q.** Which results are given for B3?
**A.** Kd: 40.7 nM; koff: 0.043 s⁻¹; kon: 1.06e+06 M⁻¹ s⁻¹

**Q.** For B4, which Kd is on record?
**A.** Its Kd is 96.4 nM.

**Q.** What about the koff of the same binder?
**A.** Its koff is 0.00246 s⁻¹.

**Q.** What about the kon of the same binder?
**A.** Its kon is 25500 M⁻¹ s⁻¹.

**Q.** Which Kd does the source give for B5 here?
**A.** The Kd was 25.1 nM.

**Q.** And the koff?
**A.** The koff was 0.003 s⁻¹.

**Q.** What about the kon of the same binder?
**A.** The kon was 120000 M⁻¹ s⁻¹.

**Q.** How did the Kd turn out when B6 was run?
**A.** The Kd was 2.47 nM.

**Q.** What about the koff of the same binder?
**A.** The koff was 0.00111 s⁻¹.

**Q.** What about the kon of the same binder?
**A.** Its kon is 450000 M⁻¹ s⁻¹.

The binders below were run against T2, HLA-A2/MAGE-A4 peptide MHC (pMHC) complex on cells (human) (assay: cell-based or functional assay).

**Q.** Which “EC50 (pM), activation of PGLALA-CAR-J cells in presence of MAGE-A4 peptide pulsed T2 cells” value (shortened to “EC50 (pM), activation”) does the source give for B7 here?
**A.** The value was 19.2 pM.

**Q.** Which “EC50 (pM), activation” value does the source give for B1 here?
**A.** Its value is 8.6 pM.

**Q.** Which “EC50 (pM), activation” value does the source give for B2 here?
**A.** Its value is 18.2 pM.

**Q.** Which “EC50 (pM), activation” value does the source give for B3 here?
**A.** Its value is 208 pM.

**Q.** With B4 as the binder, how does the “EC50 (pM), activation” value read?
**A.** Its value is 182 pM.

**Q.** Which “EC50 (pM), activation” value does the source give for B5 here?
**A.** Its value is 83.7 pM.

**Q.** How did the “EC50 (pM), activation” value turn out when B6 was run?
**A.** The value was 19.2 pM.

Biological target: T2, HLA-A2/MAGE-A4 peptide MHC (pMHC) …
Assay: cell-based or functional assay
Remark: another data set of the same source

**Q.** B8 was tested. Which “EC50 (nM), T-cell mediated lysis of A375 cells, 48 h” value did it give?
**A.** Its value is 1.96 nM.

**Q.** And the “EC50 (nM), T-cell mediated lysis of NCI-H2023 cells, 48 h” value?
**A.** The value was 1.12 nM.

**Q.** What about the “EC50 (nM), T-cell mediated lysis of UMUC-3 cells, 48 h” value of the same binder?
**A.** Its value is 0.45 nM.
